In patent publication US20220403022A1:

Target: human TIGIT on cells (primary T cells, transfected HEK293 cells, Jurkat reporter cells, NK cells) (human) (UniProt Q495A1)
Experiment: cell-based or functional assay

Sequence of human TIGIT on cells (primary T cells, transfected HEK293 cells, Jurkat reporter cells, NK cells) (human) (Q495A1 22-244 limits assumed): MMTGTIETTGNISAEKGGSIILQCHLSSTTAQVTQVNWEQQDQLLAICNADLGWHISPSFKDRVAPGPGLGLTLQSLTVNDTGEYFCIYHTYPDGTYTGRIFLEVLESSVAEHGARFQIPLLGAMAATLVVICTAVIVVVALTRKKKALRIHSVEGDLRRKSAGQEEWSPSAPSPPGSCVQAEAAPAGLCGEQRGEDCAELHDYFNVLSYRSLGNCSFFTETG

Max RLU (potency): 575 RLU
Substance: Isotype control (antibody)
